Laboratory results: patent publication US20210238260
Positions count from the first letter of the chain named. Names and notes keep the numbering of the source.

B1: FIXa-R318Y/R338E/Y345A/N346D/R403E/E410N (protein)
chain 1: YNSGKLEEFVQGNLERECMEEKCSFEEAREVFENTERTTEFWKQYVDGDQCESNPCLNGGSCKDDINSYECWCPFGFEGKNCELDVTCNIKNGRCEQFCKNSADNKVVCSCTEGYRLAENQKSCEPAVPFPCGRVSVSQTSKLTR
chain 2: VVGGEDAKPGQFPWQVVLNGKVDAFCGGSIVNEKWIVTAAHCVETGVKITVVAGEHNIEETEHTEQKRNVIRIIPHHNYNAAINKYNHDIALLELDEPLVLNSYVTPICIADKEYTNIFLKFGSGYVSGWGRVFHKGYSALVLQYLRVPLVDRATCLESTKFTIADNMFCAGFHEGGRDSCQGDSGGPHVTEVEGTSFLTGIISWGEECAMKGKYGIYTKVSEYVNWIKNKTKLT
B2: FIXa D104N/K106S/K228N/K247N/N249S (protein)
chain 1: B1 chain 1 with D104N, K106S
chain 2: B1 chain 2 with K48N, K67N, N69S, Y138R, E158R, A165Y, D166N, E223R, N230E
B3: FIXa D104N/K106S/I251S/R318Y/R338E/E410N (protein)
chain 1: B1 chain 1 with D104N, K106S
chain 2: B1 chain 2 with I71S, A165Y, D166N, E223R
B4: FIXa R318Y/R403E/E410N (protein)
chain 1: B1 chain 1
chain 2: B1 chain 2 with E158R, A165Y, D166N
B5: FIXa D85N/K228N/R318Y/R338E/R403E/E410N (protein)
chain 1: B1 chain 1 with D85N
chain 2: B1 chain 2 with K48N, A165Y, D166N
B6: FIXa D203N/F205T/E410N (protein)
chain 1: B1 chain 1
chain 2: B1 chain 2 with D23N, F25T, Y138R, E158R, A165Y, D166N, E223R
B7: FIXa R318Y/R338E/E410N (protein)
chain 1: B1 chain 1
chain 2: B1 chain 2 with A165Y, D166N, E223R
B8: FIXa variant Y155F/R338E/R403E/E410N (protein)
chain 1: B1 chain 1
chain 2: B1 chain 2 with Y138R, A165Y, D166N
B9: FIXa D203N/F205T/R338E (protein)
chain 1: B1 chain 1
chain 2: B1 chain 2 with D23N, F25T, Y138R, A165Y, D166N, E223R, N230E
B10: FIXa D104N/K106S/Y155F/K247N/N249S/R318Y/R338E/R403E/E410N (protein)
chain 1: B1 chain 1 with D104N, K106S
chain 2: B1 chain 2 with K67N, N69S, A165Y, D166N
B11: FIXa K228N/R318Y/R338E/R403E/E410N (protein)
chain 1: B1 chain 1
chain 2: B1 chain 2 with K48N, A165Y, D166N
B12: FIXa K247N/N249S/R318Y/R338E/R403E/E410N (protein)
chain 1: B1 chain 1
chain 2: B1 chain 2 with K67N, N69S, A165Y, D166N
B13: FIXa Y259F/K265T/Y345T (protein)
chain 1: B1 chain 1
chain 2: B1 chain 2 with Y79F, K85T, Y138R, E158R, A165T, D166N, E223R, N230E
B14: FIXa Y155F/K247N/N249S/R318Y/R338E/E410N (protein)
chain 1: B1 chain 1
chain 2: B1 chain 2 with K67N, N69S, A165Y, D166N, E223R
B15: FIXa Y155F/R318Y/R338E/E410N (protein)
chain 1: B1 chain 1
chain 2: B1 chain 2 with A165Y, D166N, E223R
B16: FIXa variant K293A/R338A/R403A (protein)
chain 1: B1 chain 1
chain 2: B1 chain 2 with K113A, Y138R, E158A, A165Y, D166N, E223A, N230E
B17: FIXa R318Y/R338E/R403E/E410S (protein)
chain 1: B1 chain 1
chain 2: B1 chain 2 with A165Y, D166N, N230S
B18: FIXa R318Y/R338E/E410S (protein)
chain 1: B1 chain 1
chain 2: B1 chain 2 with A165Y, D166N, E223R, N230S
B19: FIXa D203N/F205T/R338E/R403E (protein)
chain 1: B1 chain 1
chain 2: B1 chain 2 with D23N, F25T, Y138R, A165Y, D166N, N230E
B20: FIXa I251S/R318Y/R338E/R403E/E410N (protein)
chain 1: B1 chain 1
chain 2: B1 chain 2 with I71S, A165Y, D166N
B21: FIXa variant R338E/R403E/E410N (protein)
chain 1: B1 chain 1
chain 2: B1 chain 2 with Y138R, A165Y, D166N
B22: FIXa Y155F/R338E/R403E/E410N (protein)
chain 1: B1 chain 1
chain 2: B1 chain 2 with Y138R, E158R, A165Y, D166N, R178E
B23: FIXa D104N/K106S/K247N/N249S/R318Y/R338E/R403E/E410N (protein)
chain 1: B1 chain 1 with D104N, K106S
chain 2: B1 chain 2 with K67N, N69S, A165Y, D166N
B24: FIXa Y155F/R318Y/R403E/E410N (protein)
chain 1: B1 chain 1
chain 2: B1 chain 2 with E158R, A165Y, D166N
B25: FIXa I251S/R318Y/R338E/E410N (protein)
chain 1: B1 chain 1
chain 2: B1 chain 2 with I71S, A165Y, D166N, E223R
B26: FIXa D104N/K106S/Y155F/K228N/K247N/N249S (protein)
chain 1: B1 chain 1 with D104N, K106S
chain 2: B1 chain 2 with K48N, K67N, N69S, Y138R, E158R, A165Y, D166N, E223R, N230E
B27: FIXa K247N/N249S/R318Y/R338E/E410N (protein)
chain 1: B1 chain 1
chain 2: B1 chain 2 with K67N, N69S, A165Y, D166N, E223R
B28: FIXa K228N/R338E/R403E (protein)
chain 1: B1 chain 1
chain 2: B1 chain 2 with K48N, Y138R, A165Y, D166N, N230E
B29: FIXa Y155F/R318Y/R338E/R403E (protein)
chain 1: B1 chain 1
chain 2: B1 chain 2 with A165Y, D166N, N230E
B30: FIXa K228N/K247N/N249S (protein)
chain 1: B1 chain 1
chain 2: B1 chain 2 with K48N, K67N, N69S, Y138R, E158R, A165Y, D166N, E223R, N230E
B31: FIXa variant K293E/R338E/R403E (protein)
chain 1: B1 chain 1
chain 2: B1 chain 2 with K113E, Y138R, A165Y, D166N, N230E
B32: FIXa D203N/F205T/K228N (protein)
chain 1: B1 chain 1
chain 2: B1 chain 2 with D23N, F25T, K48N, Y138R, E158R, A165Y, D166N, E223R, N230E
B33: FIXa R338E/R403E/E410N (protein)
chain 1: B1 chain 1
chain 2: B1 chain 2 with Y138R, A165Y, D166N
B34: FIXa R318Y/R338E/R403E/E410N (protein)
chain 1: B1 chain 1
chain 2: B1 chain 2 with A165Y, D166N
B35: FIXa D203N/F205T/R338A (protein)
chain 1: B1 chain 1
chain 2: B1 chain 2 with D23N, F25T, Y138R, E158A, A165Y, D166N, E223R, N230E
B36: FIXa D104N/K106S/R318Y/R338E/E410N (protein)
chain 1: B1 chain 1 with D104N, K106S
chain 2: B1 chain 2 with A165Y, D166N, E223R
B37: FIXa D203N/F205T/R318Y (protein)
chain 1: B1 chain 1
chain 2: B1 chain 2 with D23N, F25T, E158R, A165Y, D166N, E223R, N230E
B38: FIXa Y155F/I251S/R318Y/R338E/R403E/E410N (protein)
chain 1: B1 chain 1
chain 2: B1 chain 2 with I71S, A165Y, D166N
B39: FIXa R318Y/R338E/R403E (protein)
chain 1: B1 chain 1
chain 2: B1 chain 2 with A165Y, D166N, N230E
B40: FIXa A103N/N105S/K247N/N249S/R318Y/R338E/R403E/E410N (protein)
chain 1: B1 chain 1 with A103N, N105S
chain 2: B1 chain 2 with K67N, N69S, A165Y, D166N
B41: FIXa Y155F/K228N/R318Y/R338E/R403E/E410N (protein)
chain 1: B1 chain 1
chain 2: B1 chain 2 with K48N, A165Y, D166N
B42: FIXa Y155F/K247N/N249S/R318Y/R338E/R403E/E410N (protein)
chain 1: B1 chain 1
chain 2: B1 chain 2 with K67N, N69S, A165Y, D166N
B43: FIXa K228N/R318Y/E410N (protein)
chain 1: B1 chain 1
chain 2: B1 chain 2 with K48N, E158R, A165Y, D166N, E223R
B44: FIXa variant R318Y/R338E/R403E (protein)
chain 1: B1 chain 1
chain 2: B1 chain 2 with A165Y, D166N, N230E

Biological target: Factor X (FX), P00742
Sequence (P00742 whole entry, looked up): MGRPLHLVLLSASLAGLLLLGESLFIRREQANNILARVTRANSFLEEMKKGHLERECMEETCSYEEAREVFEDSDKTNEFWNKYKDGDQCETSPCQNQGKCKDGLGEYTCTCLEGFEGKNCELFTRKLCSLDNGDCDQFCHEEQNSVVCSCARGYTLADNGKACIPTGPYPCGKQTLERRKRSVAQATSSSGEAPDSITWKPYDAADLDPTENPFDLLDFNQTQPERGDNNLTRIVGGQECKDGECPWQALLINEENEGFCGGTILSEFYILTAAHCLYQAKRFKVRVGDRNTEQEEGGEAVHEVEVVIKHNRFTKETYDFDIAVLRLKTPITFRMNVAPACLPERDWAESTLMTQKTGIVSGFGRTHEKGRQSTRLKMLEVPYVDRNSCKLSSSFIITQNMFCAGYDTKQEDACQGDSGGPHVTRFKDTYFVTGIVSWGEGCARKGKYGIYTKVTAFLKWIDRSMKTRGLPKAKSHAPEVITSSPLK

Row | Protein | KM (FX activation by FIXa in the Xase complex with FVIIIa, PC/PS vesicles and Ca2+) | KM | also measured
1 | B1 | – | – | kcat of FX activation by FIXa (Xase complex with FVIIIa, PC/PS vesicles, Ca2+): 1.2 s⁻¹
2 | B2 | 0.0771 µM | – | –
3 | B3 | 0.0243 µM | – | –
4 | B4 | – | 0.0942 µM | –
5 | B5 | 0.0393 µM | – | –
6 | B6 | – | 0.0455 µM | –
7 | B7 | – | 0.0139 µM | –
8 | B8 | – | – | % of WT kcat/KM: 401%; kcat/KM: 1.8e+08 M⁻¹ s⁻¹
9 | B9 | – | 0.0241 µM | –
10 | B10 | 0.0518 µM | – | –
11 | B11 | 0.0361 µM | – | –
12 | B12 | 0.0392 µM | – | –
13 | B13 | 0.0309 µM | – | –
14 | B14 | 0.0147 µM | – | –
15 | B15 | – | 0.016 µM | –
16 | B16 | – | – | % of WT kcat/KM: 53%; kcat/KM: 2.5e+07 M⁻¹ s⁻¹
17 | B17 | 0.0364 µM | – | –
18 | B18 | 0.0164 µM | – | –
19 | B19 | – | 0.0511 µM | –
20 | B20 | 0.0334 µM | – | –
21 | B21 | – | – | % of WT kcat/KM: 411%; kcat/KM: 1.9e+08 M⁻¹ s⁻¹
22 | B22 | – | 0.0336 µM | –

Row | Protein | KM (FX activation by FIXa in the Xase complex with FVIIIa, PC/PS vesicles and Ca2+) | KM | also measured
23 | B23 | 0.059 µM | – | –
24 | B24 | – | 0.111 µM | –
25 | B25 | 0.0161 µM | – | –
26 | B26 | 0.0753 µM | – | –
27 | B27 | 0.0166 µM | – | –
28 | B28 | – | 0.0592 µM | –
29 | B29 | – | 0.0671 µM | –
30 | B30 | 0.0945 µM | – | –
31 | B31 | – | – | % of WT kcat/KM: 36%; kcat/KM: 1.7e+07 M⁻¹ s⁻¹
32 | B32 | – | 0.0399 µM | –
33 | B33 | – | 0.0367 µM | –
34 | B34 | – | 0.0432 µM | –
35 | B35 | – | 0.0385 µM | –
36 | B36 | – | 0.0189 µM | –
37 | B37 | – | 0.0475 µM | –
38 | B38 | 0.0433 µM | – | –
39 | B39 | – | 0.0597 µM | –
40 | B40 | 0.028 µM | – | –
41 | B41 | 0.0408 µM | – | –
42 | B42 | 0.0363 µM | – | –
43 | B43 | – | 0.042 µM | –
44 | B44 | – | – | % of WT kcat/KM: 134%; kcat/KM: 6.2e+07 M⁻¹ s⁻¹
